Measured values from article PMC4358366, “Identification of ‘erasers’ for lysine crotonylated histone marks using a chemical proteomics approach” (eLife, 2014).

Molecular target: T1, Sirt3 F180L (Homo sapiens, UniProt Q9NTG7, F180L)
T1 construct: His tag (from pTrcHis 2C vector; nickel column purification); made in house; host or cells: E. coli Rosetta
T1 sequence (Q9NTG7 102-399 F180L): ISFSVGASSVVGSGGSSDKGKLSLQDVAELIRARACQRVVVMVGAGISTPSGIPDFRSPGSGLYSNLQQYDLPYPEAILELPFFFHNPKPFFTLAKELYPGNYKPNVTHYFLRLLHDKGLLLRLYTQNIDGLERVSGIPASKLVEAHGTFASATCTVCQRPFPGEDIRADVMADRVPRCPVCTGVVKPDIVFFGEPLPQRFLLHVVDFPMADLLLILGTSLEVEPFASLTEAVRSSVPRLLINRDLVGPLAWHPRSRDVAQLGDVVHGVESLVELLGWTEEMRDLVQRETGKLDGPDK
Assay: Steady state kinetics of deacetylation by Sirt3 F180L mutant
Format: biochemical
Settings: F180L vs wild-type Sirt3 (H3K4Ac, Figure 4—figure supplement 6)
Experimental: Plasmids of Sirt1 (193–747), Sirt2 (36–356), Sirt5 (34–302), and Sirt6 (1–314) for Escherichia coli expression were generated as previously described ([Finnin et al., 2001]; [Du et al., 2011]; [Hubbard et al., 2013]; [Jiang et al., 2013]). […] Sirt3 mutant F180L was generated by site directed mutagenesis. All of the proteins were expressed in E. coli Rosetta cells. To induce expression of target proteins, isopropyl β-D-1-thiogalactopyranoside was added to a final concentration of 0.2 mM when OD600 reached 0.6, and the culture was grown at 15 °C (Sirt3 at 25 °C) for 16–18 hr. Cells were harvested and resuspended in lysis buffer A (50 mM Tris–HCl, pH 7.5, 500 mM NaCl, 1 mM PMSF, and Roche EDTA free protease inhibitors, for Sirt1, Sirt2, and Sirt6) or buffer B (50 mM Tris–HCl, pH 7.5, 150 mM NaCl, 1 mM PMSF, and Roche EDTA free protease inhibitors, for Sirt3 and Sirt5). […]
Enzyme was incubated with different concentrations of corresponding peptides bearing two tryptophans at the C terminus (20, 40, 60, 80, 100, 200, and 500 μM) and 1.0 mM NAD in 20 mM Tris–HCl buffer (pH 7.5) containing 1 mM DTT in 25 μL reaction at 37°C for a certain period of time within the initial linear range. […] Samples were then analyzed by HPLC with a Vydac 218TP C18 column (4.6 mm×250 mm, 5 μm; Grace Davison). […]

B1: Sirt3 F180L: Sirt3 mutant with Phe180 mutated to leucine (protein, UniProt Q9NTG7 1-399, looked up, variant F180L)
chain: MAFWGWRAAAALRLWGRVVERVEAGGGVGPFQACGCRLVLGGRDDVSAGLRGSHGARGEPLDPARPLQRPPRPEVPRAFRRQPRAAAPSFFFSSIKGGRRSISFSVGASSVVGSGGSSDKGKLSLQDVAELIRARACQRVVVMVGAGISTPSGIPDFRSPGSGLYSNLQQYDLPYPEAILELPFFFHNPKPFFTLAKELYPGNYKPNVTHYFLRLLHDKGLLLRLYTQNIDGLERVSGIPASKLVEAHGTFASATCTVCQRPFPGEDIRADVMADRVPRCPVCTGVVKPDIVFFGEPLPQRFLLHVVDFPMADLLLILGTSLEVEPFASLTEAVRSSVPRLLINRDLVGPLAWHPRSRDVAQLGDVVHGVESLVELLGWTEEMRDLVQRETGKLDGPDK
decrease in deacetylation activity caused by F180L mutation: about a two-fold decrease
